The source of these data is the RNAGym collection of RNA variant scans (doi:10.1073/pnas.2313332121).

B1: TPR t1 (parent)
chain: GACCAAUCUGCCCUCAGAGCUCGAGAACAUCUUCGGAUGCAGAGGAGGCAGGCUUCGGUGGCGCGAUAGCGCCAACGUCCUCAACCUCCAAUGCAUCCCACCACAUGAUGAUGCCUGAAGAGCCUUGGUUUUUUG

In this data set the parent is B1. Description: polymerase ribozyme fitness, log enrichment relative to wild type (log ratio); higher = more active; in vitro selection for triplet polymerase activity. In short, it runs like this:
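Mutant libraries of each subunit of a heterodimeric triplet polymerase ribozyme were built by PCR and transcribed. Each library went through one round of in vitro selection in triplicate: annealing with biotinylated primer, partner subunit and triplets, frozen incubation at −7 °C, gel excision of extended constructs, streptavidin-bead capture and RT-PCR. Input and output libraries were Illumina-sequenced; only genotypes with ≥10 input reads and ≥1 read per output were kept. Fitness is log2(genotype enrichment/wild-type enrichment), using inverse-variance-weighted replicate averages.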
With U9G A27U U133G, the “polymerase ribozyme fitness (log ratio)” value was -2.53.
As for G10A C34A, the “polymerase ribozyme fitness (log ratio)” value is -2.87.
In the case of U9G C89U it was 0.304; in that of G10A C64U U129G, -1.78; in that of U9A A50C A91G U106C, -1.11.
Consider U9A U14G A41C G42U G60U, for which the “polymerase ribozyme fitness (log ratio)” value is -0.928.
In the case of U9A C13G G61U, the “polymerase ribozyme fitness (log ratio)” value worked out at 0.255.
For G10C C98U, the “polymerase ribozyme fitness (log ratio)” value was -1.81.
With U9A C62G C79G, the “polymerase ribozyme fitness (log ratio)” value was -4.02.
Take U9A G36A: the “polymerase ribozyme fitness (log ratio)” value was 0.00915.
As for U9A C12A G42U A46G C53G C70U U132A, the “polymerase ribozyme fitness (log ratio)” value was -2.02.
For G10A G45A G63U C82A C85A U92C, the “polymerase ribozyme fitness (log ratio)” value was -5.42.
The result for G10C U87A reads -0.978; that for U9C C56G G60A C88G, -3.64.
U9A A90C: the “polymerase ribozyme fitness (log ratio)” value is -0.569.
On to U9G C56G G61A, for which the “polymerase ribozyme fitness (log ratio)” value is -2.17.
For U9C C53G C114U U116A C123A U130C, the “polymerase ribozyme fitness (log ratio)” value is -7.66.
With G10A C40A C72A A111C, the “polymerase ribozyme fitness (log ratio)” value is -1.19.
The result for G10A U129A reads -1.14; that for U9G C40G G110U C123G, -4.98.
Take G10C A43U U129C: the “polymerase ribozyme fitness (log ratio)” value was -3.15.
For the variant U9G G113A, the “polymerase ribozyme fitness (log ratio)” value is -0.0202.
For the variant U9A C114A, the “polymerase ribozyme fitness (log ratio)” value came out at 0.123.
For the variant U9A C49A C72A A100U, the “polymerase ribozyme fitness (log ratio)” value was -0.384.
On to U9A G110U C124G, for which the “polymerase ribozyme fitness (log ratio)” value was -0.636.
With G10A A90C G93C A111U, the “polymerase ribozyme fitness (log ratio)” value was -5.12.
For the variant G10C C114U, the “polymerase ribozyme fitness (log ratio)” value is -2.38.
The result for U9G C124A U131G reads 1.79; that for G10A C40A C56A A84C C85A C99A C115U, -7.46.
The result for G10C C85U reads -1.64; that for U9G C40A U54G U81G C85A C123G, -5.22; that for U9G A37C C40U C72U C123A, -0.161.
With U9G A46U A91C G117A, the “polymerase ribozyme fitness (log ratio)” value is -1.93.
G10A A37U C72A G77C G113A C114U U116G G128A: the “polymerase ribozyme fitness (log ratio)” value is -7.17.
Take U9A A91C U92A C104U: the “polymerase ribozyme fitness (log ratio)” value is -2.18.
In the case of U9G U55C C89U C94A U126A it was -1.95; in that of U9A C85A C97U G117C C124A, -3.01.
U9A C73A C104U U130G G135C: the “polymerase ribozyme fitness (log ratio)” value is 0.682.
In the case of U9A A111U, the “polymerase ribozyme fitness (log ratio)” value was -1.46.
In the case of G10A C114G G135A it was -3.42; in that of G10A G17U C115A G135U, 0.196.
Turning to U9G G120A U130A, the “polymerase ribozyme fitness (log ratio)” value worked out at 1.11.
The result for G10A C13G C22G A37C C72A A95U reads -4.63; that for G10A C15G G61U, -3.16.
As to U9G C31U, the “polymerase ribozyme fitness (log ratio)” value is -4.02.
Regarding U9C G25A, the “polymerase ribozyme fitness (log ratio)” value was -6.01.
For U9C C114A U129C, the “polymerase ribozyme fitness (log ratio)” value was -1.92.
Take G10C G71A G113C: the “polymerase ribozyme fitness (log ratio)” value is -4.81.
For the variant U9C C49A C62U C123U, the “polymerase ribozyme fitness (log ratio)” value was 1.78.
Regarding U9C G48U G52C C94U, the “polymerase ribozyme fitness (log ratio)” value was -2.36.
As for U9C G60U U109G C114G, the “polymerase ribozyme fitness (log ratio)” value was -3.95.
Take U9A G61U C85U G117U: the “polymerase ribozyme fitness (log ratio)” value was 0.0255.
Turning to U9G A41U U54A U78C, the “polymerase ribozyme fitness (log ratio)” value was -1.59.
Take G10C C73A: the “polymerase ribozyme fitness (log ratio)” value was -1.86.
Turning to G10U A16C C49U A118G C124A, the “polymerase ribozyme fitness (log ratio)” value is -2.5.
As to U9G A27U G39U A46U, the “polymerase ribozyme fitness (log ratio)” value is -4.
Regarding U9A C15A G45C A108G, the “polymerase ribozyme fitness (log ratio)” value was -4.55.
Take U9G G45U U92C U129G: the “polymerase ribozyme fitness (log ratio)” value is -1.65.
On to U9A U32A A37U A46C C56A C79A A111G, for which the “polymerase ribozyme fitness (log ratio)” value is -7.29.
For the variant U9C C13U C53A U87C A100U, the “polymerase ribozyme fitness (log ratio)” value is -0.242.
As for G10C C56U G117C, the “polymerase ribozyme fitness (log ratio)” value was -4.57.
With U9A U30C G44A G57U G60A, the “polymerase ribozyme fitness (log ratio)” value was -4.18.
In the case of G10A A29C it was -1.99.
In the case of U9C U59C A84U C104A C114U, the “polymerase ribozyme fitness (log ratio)” value is -4.8.
On to U9G C34A G120C, for which the “polymerase ribozyme fitness (log ratio)” value is -0.929.
Regarding G10A A29U C72A C88G U116G, the “polymerase ribozyme fitness (log ratio)” value is -3.97.
G10A G63C: the “polymerase ribozyme fitness (log ratio)” value was -0.414.
As for G10A A27U G42A C70U C99A, the “polymerase ribozyme fitness (log ratio)” value is -6.56.
As for U9A A74G C104A C123A, the “polymerase ribozyme fitness (log ratio)” value is -0.249.
Consider G10A U59C A66C A68G U106G A121U, for which the “polymerase ribozyme fitness (log ratio)” value was -4.4.
The result for U9A C99A reads -6.7; that for U9C G63A, 0.19; that for U9C A27C C40G C72A, -3.22.
In the case of G10C A26G G71A it was -2.61; in that of U9A G58C G71A U112A G113C G128U, -3; in that of G10A A18U G77A U87A C115A, -1.44.
On to U9C C56A A95C U116A, for which the “polymerase ribozyme fitness (log ratio)” value was -2.12.
Take U9C C56U A83U G117A: the “polymerase ribozyme fitness (log ratio)” value is 0.635.
Regarding U9C G17U U32C C49U C72U A105G, the “polymerase ribozyme fitness (log ratio)” value was -5.59.
Regarding G10A U92A, the “polymerase ribozyme fitness (log ratio)” value is -2.86.
Consider U9A G47U C97G C99U G120U U130C, for which the “polymerase ribozyme fitness (log ratio)” value is -5.08.
With U9C C72U U78C A83U A90G A121G, the “polymerase ribozyme fitness (log ratio)” value worked out at 2.19.
Turning to U9G C80A U87C C114U, the “polymerase ribozyme fitness (log ratio)” value was -4.36.
Take G10A C12U U112A: the “polymerase ribozyme fitness (log ratio)” value came to 1.73.
